We go through 63 sequences from the supplement of paper PMC7877785.

The nature of the data set: self-splicing fitness, log relative to wild type (ln ratio); higher = more splicing; Tetrahymena group I intron in knt gene, E. coli kanamycin selection, DiMSum; sequences stand for … in CUCUCU…GGAGGGAAAAGUUAUCAGGCAUGCACCUGGUAGCUAGUCUUUAAACCAAUAGAUUGCAUCGGUUUAAAAGGCAAGACCGUCAAAUUGCGGGAAAGGGGUCAACAGCCGUUCAGUACCAAGUCUCAGGGGAAACUUUGAGAUGGCCUUGCAAAGGGUAUGGUAAUAAGCUGACGGACAUGGUCCUAACCACGCAGCCAAGUCCUAAGUCAACAGAUCUUCUGUUGAUAUGGAUGCAGUUCACAGACUAAAUGUCGGUCGGGGAAGAUGUAUUCUUCUCAUAAGAUAUAGUCGGACCUCUCCUUAAUGGGAGCUAGCGGAUGAAGUGAUGCAACACUGGAGCCGCUGGGAACUAAUUUGUAUGCGAAAGUAUAUUGAUUAGUUUUGGAGUACUCGUGGUCG
In short, it runs like this:
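Fitness was computed with DiMSum as the error-weighted combination of replicate fold changes, kanamycin versus none, each normalised to wild type. The library randomised all eight intron nucleotides of the P1ex region, with the intron placed in the knt kanamycin-resistance gene on pET-22b(+) in E. coli BL21(DE3). Six replicate transformations were grown overnight at 37°C or 30°C on LB agar with or without 25 μg/mL kanamycin, plus 100 μg/mL carbenicillin, 50 μM IPTG and 0.2% rhamnose. Pooled colonies were amplicon-sequenced on an Illumina HiSeq 2500.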

± gives the uncertainty stated by the source.

Turning to AUACAGCAAUAUUACGCAAU, the “self-splicing fitness (ln)” value (30 °C) is -1.93 ± 0.15 and the “self-splicing fitness (ln)” value (37 °C) is -1.02 ± 0.16. On to UAAGAGCAAUAUUACGCAGU, for which, under “37 °C”, the “self-splicing fitness (ln)” value was -2.38 ± 0.28. As to UUCUAGCAAUAUUACGCAAU, the “self-splicing fitness (ln)” value runs as follows: (30 °C) -2.27 ± 0.22; (37 °C) -2.21 ± 0.32. For AGGAAGCAAUAUUACGAUAG the same measures were -3.02 ± 0.28 and -1.55 ± 0.38. In the case of CUCAAGCAAUAUUACGAUAG, the “self-splicing fitness (ln)” value (30 °C) was -2 ± 0.1 and the “self-splicing fitness (ln)” value (37 °C) is -0.283 ± 0.1. As for CGAAAGCAAUAUUACGUGAC, the “self-splicing fitness (ln)” value is, setting by setting: (30 °C) -3.45 ± 0.12; (37 °C) -2.22 ± 0.13. For GCUCAGCAAUAUUACGGCUU the same measures were -0.675 ± 0.066 and -0.385 ± 0.071. In the case of UAUUAGCAAUAUUACGUACG, the “self-splicing fitness (ln)” value (30 °C) was -0.0813 ± 0.071 and the “self-splicing fitness (ln)” value (37 °C) is -0.262 ± 0.09.

Consider ACUUAGCAAUAUUACGACUC, for which the “self-splicing fitness (ln)” value by setting is: (30 °C) -1.05 ± 0.12; (37 °C) -0.137 ± 0.15.

With UGUAAGCAAUAUUACGAUCC, the “self-splicing fitness (ln)” value runs as follows: (30 °C) -1.49 ± 0.34; (37 °C) -0.943 ± 0.42.

Take ACCUAGCAAUAUUACGAGUU: the “self-splicing fitness (ln)” value runs as follows: (30 °C) -2.28 ± 0.087; (37 °C) -1.24 ± 0.1. Consider UCCAAGCAAUAUUACGUGCG, for which the “self-splicing fitness (ln)” value is -3.59 ± 0.15 (30 °C) and -1.68 ± 0.13 (37 °C). Regarding UCCGAGCAAUAUUACGCCCU, the “self-splicing fitness (ln)” value (30 °C) was -2.74 ± 0.31. As to AGUCAGCAAUAUUACGUGGG, the “self-splicing fitness (ln)” value reads like this: (30 °C) -4.29 ± 0.21; (37 °C) -2.44 ± 0.14. Turning to UCGGAGCAAUAUUACGUGAA, the “self-splicing fitness (ln)” value is, setting by setting: (30 °C) -3.41 ± 0.39; (37 °C) -1.63 ± 0.14. CCCAAGCAAUAUUACGUCAA: the “self-splicing fitness (ln)” value is -1.84 ± 0.14 (30 °C) and -2.3 ± 0.19 (37 °C). In the case of CUCAAGCAAUAUUACGAGUG, the “self-splicing fitness (ln)” value (30 °C) was -2.91 ± 0.11 and the “self-splicing fitness (ln)” value (37 °C) was -1.41 ± 0.086. On to GGCGAGCAAUAUUACGGAUG, for which the “self-splicing fitness (ln)” value is, setting by setting: (30 °C) -3.22 ± 0.19; (37 °C) -1.7 ± 0.15. Turning to ACCCAGCAAUAUUACGGAGC, the “self-splicing fitness (ln)” value is, setting by setting: (30 °C) -1.06 ± 0.083; (37 °C) -0.369 ± 0.1.

Consider GCUAAGCAAUAUUACGCAGC, for which the “self-splicing fitness (ln)” value runs as follows: (30 °C) -3.14 ± 0.4; (37 °C) -2.62 ± 0.28. Take GUGCAGCAAUAUUACGGGAC: the “self-splicing fitness (ln)” value (30 °C) is -2.09 ± 0.19 and the “self-splicing fitness (ln)” value (37 °C) is -2.82 ± 0.48. For CCGGAGCAAUAUUACGGGCU the same measures were -3.52 ± 0.35 and -3.75 ± 0.42. As for UGCGAGCAAUAUUACGACAG, the “self-splicing fitness (ln)” value (30 °C) was -2.55 ± 0.21 and the “self-splicing fitness (ln)” value (37 °C) was -1.29 ± 0.18. For the sequence UCCGAGCAAUAUUACGUUGU, the “self-splicing fitness (ln)” value is, setting by setting: (30 °C) -2.89 ± 0.14; (37 °C) -2.96 ± 0.22. For the sequence AUGAAGCAAUAUUACGCUGC, the “self-splicing fitness (ln)” value is -2.7 ± 0.24 (30 °C) and -2.42 ± 0.44 (37 °C). Turning to GAGGAGCAAUAUUACGUACC, the “self-splicing fitness (ln)” value reads like this: (30 °C) -0.85 ± 0.31; (37 °C) -0.663 ± 0.27. Consider GCUAAGCAAUAUUACGUUUU, for which the “self-splicing fitness (ln)” value is, setting by setting: (30 °C) -2 ± 0.093; (37 °C) -0.945 ± 0.1. With UAGGAGCAAUAUUACGUCUA, the “self-splicing fitness (ln)” value is -0.313 ± 0.11 (30 °C) and 0.198 ± 0.13 (37 °C).

Turning to CAUAAGCAAUAUUACGUGAC, the “self-splicing fitness (ln)” value was -2.48 ± 0.15 (30 °C) and -2.03 ± 0.22 (37 °C). As to GUCAAGCAAUAUUACGCCAA, under “37 °C”, the “self-splicing fitness (ln)” value was -1.52 ± 0.28. With UAGAAGCAAUAUUACGACGA, the “self-splicing fitness (ln)” value was -0.144 ± 0.1 (30 °C) and -0.0918 ± 0.1 (37 °C). For the sequence GGUGAGCAAUAUUACGCAUA, the “self-splicing fitness (ln)” value by setting is: (30 °C) -0.925 ± 0.15; (37 °C) -1.55 ± 0.22. On the same counts, the results for UUUUAGCAAUAUUACGGAUG are -1.12 ± 0.22 and 0.2 ± 0.15. As to UUAUAGCAAUAUUACGGGGC, the “self-splicing fitness (ln)” value (30 °C) was -2.88 ± 0.34. As to CAGCAGCAAUAUUACGUGUG, the “self-splicing fitness (ln)” value (30 °C) is -2.51 ± 0.077 and the “self-splicing fitness (ln)” value (37 °C) is -1.32 ± 0.088. Regarding AGGGAGCAAUAUUACGCGCG, the “self-splicing fitness (ln)” value is, setting by setting: (30 °C) -1.62 ± 0.35; (37 °C) -1.11 ± 0.37.

On to AUGUAGCAAUAUUACGUGAA, for which the “self-splicing fitness (ln)” value is -2.3 ± 0.12 (30 °C) and -1.22 ± 0.14 (37 °C). Take GCAUAGCAAUAUUACGUGCG: the “self-splicing fitness (ln)” value (30 °C) is -2.26 ± 0.1 and the “self-splicing fitness (ln)” value (37 °C) is -1.91 ± 0.14. Regarding CAAUAGCAAUAUUACGAGGC, the “self-splicing fitness (ln)” value reads like this: (30 °C) -3.6 ± 0.33; (37 °C) -1.44 ± 0.31.

Turning to CAAUAGCAAUAUUACGUAUC, the “self-splicing fitness (ln)” value (30 °C) was -3.48 ± 0.15 and the “self-splicing fitness (ln)” value (37 °C) is -2.73 ± 0.18. On to UUACAGCAAUAUUACGUGUG, for which the “self-splicing fitness (ln)” value was -1.72 ± 0.063 (30 °C) and 0.0664 ± 0.077 (37 °C). For ACGGAGCAAUAUUACGUCGG the same measures were -3.04 ± 0.31 and -0.422 ± 0.23.

Turning to AUGAAGCAAUAUUACGGAUG, the “self-splicing fitness (ln)” value was -0.705 ± 0.063 (30 °C) and 0.152 ± 0.076 (37 °C). As for AAGCAGCAAUAUUACGUGUU, the “self-splicing fitness (ln)” value is, setting by setting: (30 °C) -3.31 ± 0.1; (37 °C) -1.65 ± 0.089. For GGGGAGCAAUAUUACGCCGG, for the setting “37 °C”, the “self-splicing fitness (ln)” value was -0.928 ± 0.42. In the case of UACGAGCAAUAUUACGUCGU, the “self-splicing fitness (ln)” value (30 °C) is -4.08 ± 0.33. With GAACAGCAAUAUUACGUCAU, the “self-splicing fitness (ln)” value by setting is: (30 °C) -0.993 ± 0.069; (37 °C) -0.47 ± 0.084. For CCCGAGCAAUAUUACGCACU the same measures were -2.78 ± 0.25 and -3 ± 0.27. Turning to UCUAAGCAAUAUUACGUGCU, the “self-splicing fitness (ln)” value (30 °C) was -4.04 ± 0.34 and the “self-splicing fitness (ln)” value (37 °C) is -2.37 ± 0.2. As to UAAUAGCAAUAUUACGACGC, the “self-splicing fitness (ln)” value (30 °C) is -2.84 ± 0.34. AACCAGCAAUAUUACGUCUC: the “self-splicing fitness (ln)” value runs as follows: (30 °C) -1.23 ± 0.056; (37 °C) -0.774 ± 0.076. With AGCUAGCAAUAUUACGGUGU, the “self-splicing fitness (ln)” value by setting is: (30 °C) -2.56 ± 0.11; (37 °C) -1.22 ± 0.11. For CACAAGCAAUAUUACGACUA the same measures were -1.02 ± 0.089 and -1.21 ± 0.074. For the sequence UUAGAGCAAUAUUACGGUGA, the “self-splicing fitness (ln)” value reads like this: (30 °C) -0.868 ± 0.067; (37 °C) -0.176 ± 0.08. As for GCUUAGCAAUAUUACGUUGC, the “self-splicing fitness (ln)” value runs as follows: (30 °C) -2.46 ± 0.15; (37 °C) -0.535 ± 0.12.

In the case of UGGCAGCAAUAUUACGCGCG, the “self-splicing fitness (ln)” value is, setting by setting: (30 °C) -0.287 ± 0.064; (37 °C) 0.0127 ± 0.089.

On to CCUCAGCAAUAUUACGCCCC, for which the “self-splicing fitness (ln)” value (37 °C) was -1.39 ± 0.35. Turning to UCAGAGCAAUAUUACGGACU, where the note is “37 °C”, the “self-splicing fitness (ln)” value was -1.77 ± 0.3. Turning to UACGAGCAAUAUUACGGAAU, the “self-splicing fitness (ln)” value was -2.71 ± 0.27 (30 °C) and -2.76 ± 0.34 (37 °C). On the same counts, the results for GUUUAGCAAUAUUACGGGGU are -3.3 ± 0.35 and -2.29 ± 0.2.

Consider GUUUAGCAAUAUUACGCAUC, for which the “self-splicing fitness (ln)” value (30 °C) was -1.28 ± 0.14 and the “self-splicing fitness (ln)” value (37 °C) is -1.04 ± 0.19. In the case of CGUCAGCAAUAUUACGCCGU, the “self-splicing fitness (ln)” value was -2.49 ± 0.12 (30 °C) and 0.143 ± 0.11 (37 °C). As to ACGUAGCAAUAUUACGGAAA, the “self-splicing fitness (ln)” value is -2.27 ± 0.4 (30 °C) and -1.94 ± 0.33 (37 °C).
